Laboratory results reported in the supplement of paper PMC10126150.
± gives the standard deviation of the averaged measurements.

Tested on: ATP
Test: switch fluorescence ratio, 500 uM ATP over buffer (Cy3 cluster intensity, sum of 5 cycles each) (fold (ratio)); higher = stronger signal-on switching upon ATP binding; sequences stand for … in TCGTCGGCAGCGTCAGATGTGTATAAGAGACAGTTTTTTTTTTTTTTTTTTTTTTTTT…TC
Details: aptamer strand: ATP DNA aptamer (quencher-CACCTGGGGGAGTATTGCGGAGGAAGG + anchor), 100 nM annealed; ATP concentration: 500 uM
Procedure, shortened: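 Cy3-labelled switching-strand clusters on a modified Illumina MiSeq flow-cell were annealed to 100 nM quencher-labelled ATP aptamer, imaged in selection buffer, then imaged after 15 min with 500 uM ATP at 22 °C. Five buffer/ATP cycles ran, with NaOH stripping and re-annealing between them. The fluorescence ratio is summed target-cycle over summed buffer-cycle Cy3 intensity per cluster, averaged per switch-domain sequence. Clusters outside 100-1000 RFU were excluded.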
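Note: ATP exposure 15 min at 22 °C before imaging.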

TTCTGTATGT
switch fluorescence ratio: 0.97 ± 0.029

GGTTTTTCGC
switch fluorescence ratio: 1.028 ± 0.0029

AGGGCTGTTA
switch fluorescence ratio: 0.998 ± 0.033

TCTTAGTTGT
switch fluorescence ratio: 0.988 ± 0.024

GGGAGAGTTG
switch fluorescence ratio: 0.993 ± 0.023

ATAATGCTCT
switch fluorescence ratio: 1.02 ± 0.024

TCATATGGTG
switch fluorescence ratio: 1.03 ± 0.038

CAAGAAGATG
switch fluorescence ratio: 0.9523 ± 0.0012

AGATATCATG
switch fluorescence ratio: 0.973 ± 0.037

TGGAAGCGTT
switch fluorescence ratio: 0.98 ± 0.041

ATGGAGAAAG
switch fluorescence ratio: 1.02 ± 0.059

CGCGCCTGTG
switch fluorescence ratio: 1.17 ± 0.23

ATGATGGTCC
switch fluorescence ratio: 0.9778 ± 0.0014

AGTACTGACC
switch fluorescence ratio: 1.23 ± 0.037

GTTAGGGGTT
switch fluorescence ratio: 0.996 ± 0.024

GTTCGAAAAA
switch fluorescence ratio: 0.961 ± 0.09

TTGGAACGAT
switch fluorescence ratio: 1.02 ± 0.07

TGGGGTTTGA
switch fluorescence ratio: 0.997 ± 0.032

ATGGGTGAGT
switch fluorescence ratio: 1.002 ± 0.0086

TGAGATGGTT
switch fluorescence ratio: 1.01 ± 0.029

TGAAGCTGAT
switch fluorescence ratio: 1.02 ± 0.059

GAGTGCATTG
switch fluorescence ratio: 1.01 ± 0.015

CAATTTTCTG
switch fluorescence ratio: 0.985 ± 0.057

AGAAGGTGGG
switch fluorescence ratio: 1.01 ± 0.021

AGGGATCGTC
switch fluorescence ratio: 0.987 ± 0.014

TCACTCGAAG
switch fluorescence ratio: 1.01 ± 0.0067

TGTCGAGGGG
switch fluorescence ratio: 0.981 ± 0.017

AACATGGGGA
switch fluorescence ratio: 0.976 ± 0.025

GCGTTTATGG
switch fluorescence ratio: 1 ± 0.02

AGGATGAATA
switch fluorescence ratio: 0.9974 ± 0.0019

GGTTGTGGGC
switch fluorescence ratio: 0.992 ± 0.019

CAGGTGCGTT
switch fluorescence ratio: 1.58 ± 0.028

ATATTGGAGA
switch fluorescence ratio: 1.13 ± 0.25

TCCGTTTCTG
switch fluorescence ratio: 0.971 ± 0.018

GCGTAAGCGG
switch fluorescence ratio: 0.981 ± 0.017

CAGTATCGCG
switch fluorescence ratio: 0.989 ± 0.005

AAGAAAGGGG
switch fluorescence ratio: 0.979 ± 0.034

CAATTGCCCA
switch fluorescence ratio: 1.014 ± 0.0079

AAATGTGACG
switch fluorescence ratio: 1.03 ± 0.028

TATGTTTCGT
switch fluorescence ratio: 1.01 ± 0.041

TTGCAGATGG
switch fluorescence ratio: 0.999 ± 0.057

GGGGTCTACC
switch fluorescence ratio: 0.974 ± 0.014

TCGGATTGGC
switch fluorescence ratio: 0.985 ± 0.034

GAAGGGGGGC
switch fluorescence ratio: 1.05 ± 0.18

TCGGGTTTTT
switch fluorescence ratio: 1 ± 0.03

AGCGACGGAG
switch fluorescence ratio: 0.966 ± 0.024

ATCTTCAATT
switch fluorescence ratio: 1.005 ± 0.0055

GGTCATAGTG
switch fluorescence ratio: 1.01 ± 0.018

CCGGGCGTCG
switch fluorescence ratio: 1.26 ± 0.31

GTTTGCGCAG
switch fluorescence ratio: 1.02 ± 0.018

GTGGTGGGGA
switch fluorescence ratio: 1 ± 0.024

TGGGGCCGTG
switch fluorescence ratio: 1.04 ± 0.04

TTTTATCATG
switch fluorescence ratio: 0.9758 ± 0.0028

TAAAAATGCG
switch fluorescence ratio: 0.951 ± 0.065

TATGGATTAT
switch fluorescence ratio: 1.02 ± 0.081

TTTTTCCCCC
switch fluorescence ratio: 1.04 ± 0.05

AGGCGGGCGA
switch fluorescence ratio: 1.02 ± 0.05

TTAAGCTTGA
switch fluorescence ratio: 1.015 ± 0.0062

GGGCTAGAGG
switch fluorescence ratio: 0.974 ± 0.022

CTATGGTATC
switch fluorescence ratio: 1.02 ± 0.015

TTTCGTCTGG
switch fluorescence ratio: 0.955 ± 0.062

AGATACGAGG
switch fluorescence ratio: 1.03 ± 0.011

ACGGTAACGT
switch fluorescence ratio: 1.02 ± 0.0058

ATCAATGAAG
switch fluorescence ratio: 0.975 ± 0.023

GGCTGTTTTT
switch fluorescence ratio: 0.962 ± 0.034

CTAAAGGGGG
switch fluorescence ratio: 0.998 ± 0.029

TACGATGGTA
switch fluorescence ratio: 0.9792 ± 0.0049

GCATGAAAAC
switch fluorescence ratio: 1.03 ± 0.031

AAATGGATCA
switch fluorescence ratio: 1.024 ± 0.0029

GGAGTGGTTG
switch fluorescence ratio: 0.999 ± 0.036

GGATTGATTT
switch fluorescence ratio: 0.993 ± 0.038

CGGGTTTAAA
switch fluorescence ratio: 1 ± 0.011

CGCCTGGGCA
switch fluorescence ratio: 1.02 ± 0.043

CGGTATAACG
switch fluorescence ratio: 0.997 ± 0.043

GGGTTCTTAC
switch fluorescence ratio: 0.999 ± 0.011

GATGGGGGAG
switch fluorescence ratio: 0.999 ± 0.018

ACGGTAGGGC
switch fluorescence ratio: 1.03 ± 0.013

TTAAGTTGGT
switch fluorescence ratio: 0.997 ± 0.045

TAATTGGATG
switch fluorescence ratio: 0.992 ± 0.027

ACAGCGCCGG
switch fluorescence ratio: 1.018 ± 0.002

CGGAAAAAGC
switch fluorescence ratio: 0.985 ± 0.028

CCTGGCATTG
switch fluorescence ratio: 1.18 ± 0.09

TCAATTGGGA
switch fluorescence ratio: 0.983 ± 0.055

ATATTTGGAT
switch fluorescence ratio: 1.03 ± 0.018

GCATTATTAA
switch fluorescence ratio: 1.01 ± 0.032

GGAAATGGCG
switch fluorescence ratio: 0.981 ± 0.1

CTAAATTAGT
switch fluorescence ratio: 0.995 ± 0.042

TAGGGTCTCT
switch fluorescence ratio: 0.989 ± 0.012

AAGCGGGGAG
switch fluorescence ratio: 1.04 ± 0.04

AAGTATGGGA
switch fluorescence ratio: 1.02 ± 0.028

TGAGCACCGT
switch fluorescence ratio: 1 ± 0.017

TTCCGGGCTA
switch fluorescence ratio: 1.47 ± 0.62

GTCGTGCCTG
switch fluorescence ratio: 1.04 ± 0.15

ATGGTTAAAT
switch fluorescence ratio: 0.976 ± 0.033

ATTGTGTCAC
switch fluorescence ratio: 1 ± 0.028

GATTTTGTTG
switch fluorescence ratio: 0.979 ± 0.014

TCGTGTGGGG
switch fluorescence ratio: 1.02 ± 0.048

CACGCTAGTA
switch fluorescence ratio: 1.04 ± 0.021

GCGGCGCTTA
switch fluorescence ratio: 1.02 ± 0.016

CTTGGTGGAC
switch fluorescence ratio: 0.97 ± 0.048

TTGGGGTCGG
switch fluorescence ratio: 0.999 ± 0.037

TTGGGACGAC
switch fluorescence ratio: 1.022 ± 0.0084

GGGGGCAGCC
switch fluorescence ratio: 1.05 ± 0.083

CCGGGATCAG
switch fluorescence ratio: 1.09 ± 0.035

ATTTTTAGGC
switch fluorescence ratio: 1.11 ± 0.11

TTAGTAAACA
switch fluorescence ratio: 1.01 ± 0.049

CAAAAAGGGG
switch fluorescence ratio: 0.964 ± 0.039

GAGAAGGGCA
switch fluorescence ratio: 1.02 ± 0.05

TTGGTTGCGG
switch fluorescence ratio: 1.02 ± 0.024

TACGAGCCGC
switch fluorescence ratio: 0.989 ± 0.057

AGCCTGGGGA
switch fluorescence ratio: 1.001 ± 0.0018

GGTGAGAGGT
switch fluorescence ratio: 0.9696 ± 0.0055

GCTCGAACGA
switch fluorescence ratio: 0.995 ± 0.013

ATTTTCGAGT
switch fluorescence ratio: 1 ± 0.021

ATTTGAAGCG
switch fluorescence ratio: 0.998 ± 0.024

TTGTCGTGCC
switch fluorescence ratio: 1.031 ± 0.0098

TGCGGATATA
switch fluorescence ratio: 1.04 ± 0.043

CGAGGTTGGG
switch fluorescence ratio: 1.002 ± 0.0028

CTAATTATGG
switch fluorescence ratio: 1.04 ± 0.014

AATGGGTACT
switch fluorescence ratio: 1 ± 0.015

CCTGGCATTT
switch fluorescence ratio: 2.2 ± 1.4

GCGGGGAAAT
switch fluorescence ratio: 0.971 ± 0.021

GGGGCGTGAG
switch fluorescence ratio: 0.998 ± 0.034

TTTCCAGCGT
switch fluorescence ratio: 1.03 ± 0.036

TTGAATGAGG
switch fluorescence ratio: 0.95006 ± 0.00095

GTGGATACTA
switch fluorescence ratio: 1.009 ± 0.0047

ATTATTTCCC
switch fluorescence ratio: 1.05 ± 0.082

ATTTTAGAAT
switch fluorescence ratio: 1.02 ± 0.03

TTTGCCAGAC
switch fluorescence ratio: 1.23 ± 0.24

TTTGACAGCC
switch fluorescence ratio: 1.06 ± 0.042

CAAAATATGC
switch fluorescence ratio: 1.14 ± 0.12

CAAGGGCGGC
switch fluorescence ratio: 0.973 ± 0.012

TTTCTGTACG
switch fluorescence ratio: 1.1 ± 0.068

AGGCGCAGTG
switch fluorescence ratio: 1.04 ± 0.054

AAGGGCTTAT
switch fluorescence ratio: 0.981 ± 0.019

ATTATGCTGC
switch fluorescence ratio: 0.977 ± 0.033

TTAGGAGAGC
switch fluorescence ratio: 0.979 ± 0.014

TTTAGTACGT
switch fluorescence ratio: 1.02 ± 0.057

ATGTGCTCTC
switch fluorescence ratio: 0.9817 ± 0.0082

TTTTTAACAG
switch fluorescence ratio: 0.997 ± 0.021

TAATAAGCGG
switch fluorescence ratio: 0.976 ± 0.035

CCTGGGGTAT
switch fluorescence ratio: 1.09 ± 0.05

TTGCTTCGTT
switch fluorescence ratio: 1.02 ± 0.029

GCTGGTTGTT
switch fluorescence ratio: 1.03 ± 0.041

AGCATGATGG
switch fluorescence ratio: 1.04 ± 0.021

GACGTGGGGC
switch fluorescence ratio: 1.131 ± 0.0064

GTTAAAGGGT
switch fluorescence ratio: 1.01 ± 0.0075

CAGGATTAAA
switch fluorescence ratio: 0.959 ± 0.029

TCTGTTGACG
switch fluorescence ratio: 1.0236 ± 0.00081

TAGGGACGGG
switch fluorescence ratio: 1.07 ± 0.087

CGTTTTGATA
switch fluorescence ratio: 1.01 ± 0.012

GCGTTTTACT
switch fluorescence ratio: 1.034 ± 0.0051

GGGGAGAAGG
switch fluorescence ratio: 0.981 ± 0.031
